What was measured:
Type in all cases: in vivo, human
G-CSF = test: Biomarker analysis: serum G-CSF; details: adjusted for cytokine baseline differences
Experimental: (§1) Patient serum samples for biomarker analysis were collected approximately 30 minutes before infusion of kappamab and then at 6, 48, 192, and 1,080 hours after infusion for all patients. Samples were analysed in triplicate and serum levels of 48 human cytokines, chemokines, and growth factors were measured using the Bio-Plex Pro™ Human Cytokine 27-plex and 21-plex assays according to the manufacturer's recommendations (Bio-Rad, Carlsbad, Calif., USA; Cat No M10-0KCAF0Y, mg0-005KMII). Results were verified by repeating the 21-plex assay in triplicate and the samples were randomized across the assay plate. Pre-infusion samples were used as the baseline (t=0) for the analysis.
(§2) Multivariate analysis of the biomarker data was performed using R version 3.1.0 (2014-04-10) software (http://www.R-project.org/). Linear mixed effects modelling was completed using 1me4 (Bates et al. 2015). […]
(§3) To find significance between kappamab dose, time, and cytokine expression levels, we fitted a linear mixed-effects model that modelled cytokine fluorescence expression levels with fixed-effects terms for baseline cytokine fluorescence expression, kappamab dose (with 4 levels: 0.3, 1.0, 3.0, and 10 mg/kg), time (treated as factor with 5 levels), and cytokine with 48 levels, plus their interactions, with a random effect associated with patient (12 levels) and plex (2 levels). […]

serum λFLC = test: Serum λFLC (FreeLite assay); details: throughout the study
Excerpt: (§4) Serum FLC levels were quantified using the FreeLite™ assay (The Binding Site Group Ltd, Birmingham, UK). […] Twenty-four-hour urine collection for urine protein electrophoresis immunofixation, urine FLC measurement (FreeLite™ assay), and creatinine clearance were collected on the day of infusion and on Day 45.

HGF = test: Biomarker analysis: serum HGF; details: adjusted for cytokine baseline differences
Experimental: as §1, §2, §3

[1] = Pharmacokinetics: serum kappamab by ELISA
Excerpt: The PK analysis was based on measurement of serum kappamab using an ELISA that was validated according to recommended guidelines. Briefly, immobilized human kappa Bence Jones protein (Bethyl, Sigma, USA) was used to capture kappamab. The captured kappamab was then detected using an AP-conjugated anti-human IgG (gamma chain specific; Sigma, Cat. No. H4522) followed by colour development with the AP substrate.

serum κFLC = test: Serum κFLC pharmacodynamics (FreeLite assay)
Excerpt: as §4

kappamab: humanized form of K121 anti-KMA antibody; VH SEQ ID NO: 1, VL SEQ ID NO: 2
Change in serum concentration (G-CSF): dose-related decreases
Serum λFLC concentration (serum λFLC): no apparent change
Change in serum concentration (HGF): dose-related decreases
Cmax ([1]; 1.0 mg/kg single IV dose, N = 3, geometric mean): 20600 ng/mL
Manner of decline of serum kappamab after Cmax ([1]; human, in vivo): biphasic manner
Serum concentration at Day 30 relative to Cmax ([1]; human, in vivo): 0.3-10 % of Cmax
Volume of distribution (Vz), description ([1]; human, in vivo): low and similar across ascending doses
AUC0-tz ([1]; human, in vivo, iv, 0.3 mg/kg): 803 µg·h/mL
AUC0-tz normalized for dose (mg/kg) ([1]; human, in vivo, iv, 0.3 mg/kg): 2678 µg·h/mL
AUC0-∞ ([1]; human, in vivo, iv, 0.3 mg/kg): 901 µg·h/mL
AUC0-∞ normalized for dose (mg/kg) ([1]; human, in vivo, iv, 0.3 mg/kg): 3003 µg·h/mL
CL (apparent total body clearance) ([1]; human, in vivo, iv, 0.3 mg/kg): 7.99 mL/day/kg
Cmax ([1]; human, in vivo, iv, 0.3 mg/kg): 5440 ng/mL
Vz (apparent volume of distribution during terminal phase) ([1]; human, in vivo, iv, 0.3 mg/kg): 0.114 L/kg
t1/2 (apparent elimination half-life) ([1]; human, in vivo, iv, 0.3 mg/kg): 237 h
tmax ([1]; human, in vivo, iv, 0.3 mg/kg): 3.00 h
AUC0-tz ([1]; human, in vivo, iv, 1 mg/kg): 3006 µg·h/mL
AUC0-tz normalized for dose (mg/kg) ([1]; human, in vivo, iv, 1 mg/kg): 3006 µg·h/mL
AUC0-∞ normalized for dose (mg/kg) ([1]; human, in vivo, iv, 1 mg/kg): 3079 µg·h/mL
CL (apparent total body clearance) ([1]; human, in vivo, iv, 1 mg/kg): 7.79 mL/day/kg
Vz (apparent volume of distribution during terminal phase) ([1]; human, in vivo, iv, 1 mg/kg): 0.0946 L/kg
t1/2 (apparent elimination half-life) ([1]; human, in vivo, iv, 1 mg/kg): 202 h
tmax ([1]; human, in vivo, iv, 1 mg/kg): 4.00 h
AUC0-tz ([1]; human, in vivo, iv, 3 mg/kg): 6864 µg·h/mL
AUC0-tz normalized for dose (mg/kg) ([1]; human, in vivo, iv, 3 mg/kg): 2288 µg·h/mL
AUC0-∞ ([1]; human, in vivo, iv, 3 mg/kg): 6927 µg·h/mL
AUC0-∞ normalized for dose (mg/kg) ([1]; human, in vivo, iv, 3 mg/kg): 2309 µg·h/mL
CL (apparent total body clearance) ([1]; human, in vivo, iv, 3 mg/kg): 10.4 mL/day/kg
Cmax ([1]; human, in vivo, iv, 3 mg/kg): 69900 ng/mL
Vz (apparent volume of distribution during terminal phase) ([1]; human, in vivo, iv, 3 mg/kg): 0.120 L/kg
t1/2 (apparent elimination half-life) ([1]; human, in vivo, iv, 3 mg/kg): 191 h
tmax ([1]; human, in vivo, iv, 3 mg/kg): 2.00 h
AUC0-tz ([1]; human, in vivo, iv, 10 mg/kg): 22994 µg·h/mL
AUC0-tz normalized for dose (mg/kg) ([1]; human, in vivo, iv, 10 mg/kg): 2299 µg·h/mL
AUC0-∞ ([1]; human, in vivo, iv, 10 mg/kg): 23227 µg·h/mL
AUC0-∞ normalized for dose (mg/kg) ([1]; human, in vivo, iv, 10 mg/kg): 2323 µg·h/mL
CL (apparent total body clearance) ([1]; human, in vivo, iv, 10 mg/kg): 10.3 mL/day/kg
Cmax ([1]; human, in vivo, iv, 10 mg/kg): 219000 ng/mL
Vz (apparent volume of distribution during terminal phase) ([1]; human, in vivo, iv, 10 mg/kg): 0.0770 L/kg
t1/2 (apparent elimination half-life) ([1]; human, in vivo, iv, 10 mg/kg): 124 h
tmax ([1]; human, in vivo, iv, 10 mg/kg): 4.00 h
Detectability of kappamab in serum ([1]; in vivo): could be detected at all dose levels (up to Day 30)
Start of the apparent terminal elimination phase ([1]; in vivo, iv): ~7 days
Time at which maximum serum concentrations were achieved ([1]; in vivo, iv): 2 to 4 h
Serum κFLC higher than baseline (serum κFLC; Patient 2, during the study): up to 136%
Serum κFLC higher than baseline (serum κFLC; Patient 7, Day 1): 83%
Serum κFLC increase from baseline (serum κFLC; Patient 7, Day 30): 178%
Serum κFLC increase from baseline (serum κFLC; Patient 7, Day 45): 198%
Serum κFLC versus baseline (serum κFLC; Patient 7, by Day 105 post infusion): returned to below baseline
Serum κFLC increase from baseline (serum κFLC; Patient 13, 6 hours after IV infusion): 690%
Serum κFLC below baseline (serum κFLC; Patient 13, Day 45, remained for 3 months): 55%
Patients with decreases in serum κFLC below baseline (serum κFLC; after Day 15, 8/12 patients): 67%
Change in serum κFLC levels following IV infusion (serum κFLC; all patients): increase
Serum κFLC versus baseline (serum κFLC; by Day 45, majority of patients): generally similar to baseline values
Dose dependency between serum κFLC increase and kappamab concentration (serum κFLC; in vivo): no clear dose dependency
